Reference: patent publication US20240067706A1

Substrate: S proteins of SARS-CoV-2 and mutant strains thereof on pseudoviruses
Experiment: cell-based or functional assay

B1: fully human monoclonal antibody 76E1 (antibody, V domains shown)
VH: EVQLVESGGGVVQPGGSLRLSCEASGFSFKDYGMHWIRQTPGKGLEWISRISGDTRGTSYVDSVKGRFIVSRDNSRNSLFLQMNSLRSEDTALYYCAALVIVAAGDDFDLWGQGTVVTVSS
VL: QSALTQPLSVSGSPGQSVTISCTGSSSDIGSYNFVSWYRQYPGKAPKVMIYEVNKRPSGVPVRFSGSKSGNTASLTVSGLQHEDEADYYCCSYGGRNNLIFGGGTKLTVL
Binder B1 has an IC50 of pseudovirus neutralization (luciferase activity) of 397 ng/mL.
